Substitutions are numbered along the chain they refer to.
B1: 5p-59 (VHH)
VHH: QVQLVESGGGLVQAGGSLRLSCAVSGRTISTFGMAWFRQAPGKVREFVATITRDEDLTLYADSVKGRFTISRDTAKNTVFLQMNSLKIEDTALYYCAVRRDDSWGYSRQSIEYDYWGQGTQVTVSS
B2: 4P-46 (VHH)
VHH: HVQLVESGGGLVQAGGSLRLSCAASRIFSTSAMGWFRQAPGKEREFVAAISWSGTNTHYADSVKGRFAISTDNAKNTVYLQMNSLKPEDTAVYYCAQGGWGISQPIEVDYWGKGTQVTVSS
B3: 5p-128 (VHH)
VHH: B2 VHH with E45Q, A49G, I50T, S51D, T57I, I102V
B4: 5p-127 (VHH)
VHH: B2 VHH with H1E, N56D, D61N, N73A, K86E, I102V, S103R, I106V
B5: 4P-47 (VHH)
VHH: B2 VHH with S25D, R26A, I27R, T55A, S62T, A68T, N73T, S103T, E107S
B6: 5p-124 (VHH)
VHH: B2 VHH with G16D, T55G, T57V, A60L, T71A, A74S, N76S, Y79F, S103R, P105V
B7: 5p-125 (VHH)
VHH: B2 VHH with G16D, S62P, I102L, S103R
B8: 5p-37 (VHH)
VHH: B2 VHH with H1Q, A60T, S62P, N76S, S103R
B9: 4P-92 (VHH)
VHH: QVQLVESGGGLVQTGGSLRLSCAVSGYTFSTFPTAWFRQAPGKEREFVAGIRWNGGSRDYTEYADFVKGRFTISRDNAKNMVYLQMISLKPEDTALYYCAASHGVIDGTSANDYRYWGQGTQVTVSS
B10: 5p-13 (VHH)
VHH: HVQLVESGGGLVQPGGSLRLSCVASGLTFSRYTMAWFRQAPGKDRIFVAAVSKPGGSTYYADSVKGRFTISRDNAKNTVYLQMNSLKPDDTAVYSCAADLTVLLTANPAHYNYWGHGTQVTVSS
B11: 5p-14 (VHH)
VHH: B10 VHH with H1Q, D44E, I46V, M83T, N84S, S85R, K87N, A109G, N112K, H116Q
B12: 5p-40 (VHH)
VHH: B10 VHH with H1D, G16D, K76Q, D99G, H116Q
B13: 5p-47 (VHH)
VHH: DVQLVESGGGLVQAGGSLRLSCAASGRTFTFNRFAMGWFRQAPEKEREFVAAISRTGRSTEYADSVKGRFAISRDNTKNTVYLQMNSLKPEDTAVYYCAALEAPLLHLIATQRRQYEYWGQGTQVTVSS
B14: 5p-26 (VHH)
VHH: DVQLVESGGGLVQAGGSLRLSCAASGRTLRSYNMGWFRQPPGKEREFVAALSWTGLGTYYADSVKGRFTISRDITKNTLYLQMDSLQPEDTANYYCAADSTLDRLHSAESDYRYWGQGTQVTVSS
B15: 5p-25 (VHH)
VHH: HVQLVESGGGLVQAGGSLRLSCAASGHISSRYAMAWFRQGPGKERDFVAGMSSGASTFYAESVKGRFTLSRDNAKNAMYLQMNSLKPEDTAVYYCAADSSPLRYGLSYSSNRYDYWGQGTQVTVSS
B16: 4P-44 (VHH)
VHH: DVQLVESGGGLVQAGGSLRLSCAASGRTFSRYAAGWFRQAPGKEREFVAVIEWNGDSAYYADSVKGRFTISRDNAKNTVYLQMNRLKPEDTAVYICAVGGNHYSRSKYYTADEYDYWGQGTQVTVSS
B17: 5p-117 (VHH)
VHH: DVQLVESGGGLVQAGESLRLSCAASGRTFRNFAAGWFRQTPGKDREFVAVIEYNGDSAYYADSVKGRFTISRDNAKNTVYLQMNRLKPGDTAVYICAIGGNHYDPSKYYIADEYDYWGQGTQVTVSS
B18: 5p-119 (VHH)
VHH: B16 VHH with D1Q, G26R, R31N, D56E, V93I, V98I, T110I
B19: 5p-121 (VHH)
VHH: B16 VHH with E46S, N54D, S57T, A61S, V79L, R105S, T110I
B20: 5p-120 (VHH)
VHH: B16 VHH with D1H, N54D, T110N, A111L
B21: 4P-71 (VHH)
VHH: B16 VHH with D1H, Y32F, E52D, D56G, E89G, V98I, S104D, R105P, K107R
B22: 5p-34 (VHH)
VHH: B16 VHH with D1Q, A23T, A61T, V64A, A75T, V98I, R105P, T110I
B23: 4P-42 (VHH)
VHH: B16 VHH with D1H, N54D, S57N, R105P, S106N
B24: 5p-1 (VHH)
VHH: QVQLVESGGGLVQAGGSLRLSCAVSGRTGNRWPMGWFRQAPGKEREFVATISWSDSRTYYADSVKGRFTISRDNAKNTVFLQMASLKPEDTAVYYCAAAHARVYGANWSSSNRDDYDSWGQGTQVTVSS
B25: 5p-5 (VHH)
VHH: B24 VHH with H100T
B26: 5p-2 (VHH)
VHH: B24 VHH with N30S, S71A, A101G, S111T, D114Y
B27: 4P-1 (VHH)
VHH: B24 VHH with Q1D, V24A, N30S, W32Y, D114Y

Key:
[1] = target: RBDSARS-CoV-2 (SARS-CoV-2 S protein residues 319-539, C-terminal His-tag) (SARS-CoV-2, UniProt P0DTC2 319-539); experiment: ELISA
[2] = target: RBDSARS-CoV (SARS-CoV S protein residues 318-510, C-terminal His-tag) (SARS-CoV, UniProt P59594 318-510); experiment: ELISA

Binder	IC50 [1] [nM]	IC50 [2] [nM]
B1	< 10	> 8000
B2	< 10	10 to 100
B3	< 10	10 to 100
B4	< 10	< 10
B5	< 10	< 10
B6	< 10	< 10
B7	< 10	10 to 100
B8	< 10	10 to 100
B9	< 10	1000 to 8000
B10	< 10	< 10
B11	< 10	< 10
B12	< 10	< 10
B13	< 10	1000 to 8000
B14	< 10	> 8000
B15	< 10	< 10
B16	< 10	100 to 1000
B17	< 10	< 10
B18	< 10	< 10
B19	< 10	< 10
B20	< 10	< 10
B21	< 10	10 to 100
B22	< 10	< 10
B23	< 10	< 10
B24	10 to 100	100 to 1000
B25	10 to 100	10 to 100
B26	10 to 100	10 to 100
B27	10 to 100	1000 to 8000
